# Measurements published in patent US20220010021A1 (Sanofi, published 2022).
# T1: human beta-Klotho (KLB) (human, UniProt Q86Z14 53-997)
# T1 construct: Bought protein; also called human KLB; β-Klotho
# T1 sequence (looked up): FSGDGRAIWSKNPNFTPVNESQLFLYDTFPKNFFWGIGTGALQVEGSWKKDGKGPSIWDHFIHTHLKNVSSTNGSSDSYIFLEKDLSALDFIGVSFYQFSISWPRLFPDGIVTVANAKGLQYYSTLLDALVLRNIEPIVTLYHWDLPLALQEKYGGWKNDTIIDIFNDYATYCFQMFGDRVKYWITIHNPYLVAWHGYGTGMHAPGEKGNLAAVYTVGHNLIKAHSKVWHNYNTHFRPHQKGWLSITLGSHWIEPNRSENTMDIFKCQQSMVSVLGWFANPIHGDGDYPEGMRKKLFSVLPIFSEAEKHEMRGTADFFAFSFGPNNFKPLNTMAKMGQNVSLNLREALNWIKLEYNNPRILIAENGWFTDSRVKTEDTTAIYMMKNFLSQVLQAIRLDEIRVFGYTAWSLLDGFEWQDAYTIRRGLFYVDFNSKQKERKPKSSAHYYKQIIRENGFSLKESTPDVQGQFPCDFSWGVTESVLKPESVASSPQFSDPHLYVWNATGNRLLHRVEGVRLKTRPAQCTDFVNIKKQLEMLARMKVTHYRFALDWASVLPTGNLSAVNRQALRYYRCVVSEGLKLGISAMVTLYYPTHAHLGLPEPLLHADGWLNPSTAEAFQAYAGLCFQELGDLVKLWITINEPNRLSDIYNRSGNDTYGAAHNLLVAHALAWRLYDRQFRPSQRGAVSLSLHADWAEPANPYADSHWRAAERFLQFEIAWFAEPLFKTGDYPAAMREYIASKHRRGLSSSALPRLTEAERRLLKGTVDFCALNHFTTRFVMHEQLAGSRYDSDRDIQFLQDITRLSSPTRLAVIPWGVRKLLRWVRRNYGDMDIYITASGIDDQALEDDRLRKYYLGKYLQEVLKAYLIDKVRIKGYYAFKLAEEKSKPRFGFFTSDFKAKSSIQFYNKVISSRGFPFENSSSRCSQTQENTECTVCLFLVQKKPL
# B1: 16H7 light chain variant V32R (antibody, IgG4, V domains shown)
# VH: not shown
# VL: SYVLTQPPSVSVAPGQTARITCGGNNIGSESRHWYQQKPGQAPVLVVYDDSDRPSGIPERFSGSNSGNTATLTISRVEAGDEADYYCQVWDGNSDHVVFGGGTKLTVLG
# notes: IgG4 backbone
# B2: 16H7 light chain variant D95I (antibody, IgG4, V domains shown)
# VH: not shown
# VL: SYVLTQPPSVSVAPGQTARITCGGNNIGSESVHWYQQKPGQAPVLVVYDDSDRPSGIPERFSGSNSGNTATLTISRVEAGDEADYYCQVWDGNSIHVVFGGGTKLTVLG
# notes: IgG4 backbone
# B3: 16H7 light chain variant D50W (antibody, IgG4, V domains shown)
# VH: not shown
# VL: SYVLTQPPSVSVAPGQTARITCGGNNIGSESVHWYQQKPGQAPVLVVYDWSDRPSGIPERFSGSNSGNTATLTISRVEAGDEADYYCQVWDGNSDHVVFGGGTKLTVLG
# notes: IgG4 backbone
# B4: 16H7 light chain variant D50C (antibody, IgG4, V domains shown)
# VH: not shown
# VL: SYVLTQPPSVSVAPGQTARITCGGNNIGSESVHWYQQKPGQAPVLVVYDCSDRPSGIPERFSGSNSGNTATLTISRVEAGDEADYYCQVWDGNSDHVVFGGGTKLTVLG
# notes: IgG4 backbone
# B5: 16H7 light chain variant D95H (antibody, IgG4, V domains shown)
# VH: not shown
# VL: SYVLTQPPSVSVAPGQTARITCGGNNIGSESVHWYQQKPGQAPVLVVYDDSDRPSGIPERFSGSNSGNTATLTISRVEAGDEADYYCQVWDGNSHHVVFGGGTKLTVLG
# notes: IgG4 backbone
# B6: 16H7 light chain variant D49S (antibody, IgG4, V domains shown)
# VH: not shown
# VL: SYVLTQPPSVSVAPGQTARITCGGNNIGSESVHWYQQKPGQAPVLVVYSDSDRPSGIPERFSGSNSGNTATLTISRVEAGDEADYYCQVWDGNSDHVVFGGGTKLTVLG
# notes: IgG4 backbone
# B7: 16H7 light chain variant D50S (antibody, IgG4, V domains shown)
# VH: not shown
# VL: SYVLTQPPSVSVAPGQTARITCGGNNIGSESVHWYQQKPGQAPVLVVYDSSDRPSGIPERFSGSNSGNTATLTISRVEAGDEADYYCQVWDGNSDHVVFGGGTKLTVLG
# notes: IgG4 backbone
# B8: 16H7 light chain variant D50V (antibody, IgG4, V domains shown)
# VH: not shown
# VL: SYVLTQPPSVSVAPGQTARITCGGNNIGSESVHWYQQKPGQAPVLVVYDVSDRPSGIPERFSGSNSGNTATLTISRVEAGDEADYYCQVWDGNSDHVVFGGGTKLTVLG
# notes: IgG4 backbone
# B9: 16H7 light chain variant D95M (antibody, IgG4, V domains shown)
# VH: not shown
# VL: SYVLTQPPSVSVAPGQTARITCGGNNIGSESVHWYQQKPGQAPVLVVYDDSDRPSGIPERFSGSNSGNTATLTISRVEAGDEADYYCQVWDGNSMHVVFGGGTKLTVLG
# notes: IgG4 backbone
# B10: 16H7 light chain variant D50A (antibody, IgG4, V domains shown)
# VH: not shown
# VL: SYVLTQPPSVSVAPGQTARITCGGNNIGSESVHWYQQKPGQAPVLVVYDASDRPSGIPERFSGSNSGNTATLTISRVEAGDEADYYCQVWDGNSDHVVFGGGTKLTVLG
# notes: IgG4 backbone
# B11: 16H7 light chain variant D50E (antibody, IgG4, V domains shown)
# VH: not shown
# VL: SYVLTQPPSVSVAPGQTARITCGGNNIGSESVHWYQQKPGQAPVLVVYDESDRPSGIPERFSGSNSGNTATLTISRVEAGDEADYYCQVWDGNSDHVVFGGGTKLTVLG
# notes: IgG4 backbone
# B12: 16H7 light chain variant D50H (antibody, IgG4, V domains shown)
# VH: not shown
# VL: SYVLTQPPSVSVAPGQTARITCGGNNIGSESVHWYQQKPGQAPVLVVYDHSDRPSGIPERFSGSNSGNTATLTISRVEAGDEADYYCQVWDGNSDHVVFGGGTKLTVLG
# notes: IgG4 backbone
# B13: 16H7 light chain variant D49W (antibody, IgG4, V domains shown)
# VH: not shown
# VL: SYVLTQPPSVSVAPGQTARITCGGNNIGSESVHWYQQKPGQAPVLVVYWDSDRPSGIPERFSGSNSGNTATLTISRVEAGDEADYYCQVWDGNSDHVVFGGGTKLTVLG
# notes: IgG4 backbone
# B14: 16H7 light chain variant D50T (antibody, IgG4, V domains shown)
# VH: not shown
# VL: SYVLTQPPSVSVAPGQTARITCGGNNIGSESVHWYQQKPGQAPVLVVYDTSDRPSGIPERFSGSNSGNTATLTISRVEAGDEADYYCQVWDGNSDHVVFGGGTKLTVLG
# notes: IgG4 backbone
# B15: 16H7 light chain variant D50L (antibody, IgG4, V domains shown)
# VH: not shown
# VL: SYVLTQPPSVSVAPGQTARITCGGNNIGSESVHWYQQKPGQAPVLVVYDLSDRPSGIPERFSGSNSGNTATLTISRVEAGDEADYYCQVWDGNSDHVVFGGGTKLTVLG
# notes: IgG4 backbone
# B16: 16H7 light chain variant D50R (antibody, IgG4, V domains shown)
# VH: not shown
# VL: SYVLTQPPSVSVAPGQTARITCGGNNIGSESVHWYQQKPGQAPVLVVYDRSDRPSGIPERFSGSNSGNTATLTISRVEAGDEADYYCQVWDGNSDHVVFGGGTKLTVLG
# notes: IgG4 backbone
# B17: 16H7 light chain variant D50Y (antibody, IgG4, V domains shown)
# VH: not shown
# VL: SYVLTQPPSVSVAPGQTARITCGGNNIGSESVHWYQQKPGQAPVLVVYDYSDRPSGIPERFSGSNSGNTATLTISRVEAGDEADYYCQVWDGNSDHVVFGGGTKLTVLG
# notes: IgG4 backbone
# B18: 16H7 light chain variant D50I (antibody, IgG4, V domains shown)
# VH: not shown
# VL: SYVLTQPPSVSVAPGQTARITCGGNNIGSESVHWYQQKPGQAPVLVVYDISDRPSGIPERFSGSNSGNTATLTISRVEAGDEADYYCQVWDGNSDHVVFGGGTKLTVLG
# notes: IgG4 backbone
# B19: 16H7 light chain variant D50M (antibody, IgG4, V domains shown)
# VH: not shown
# VL: SYVLTQPPSVSVAPGQTARITCGGNNIGSESVHWYQQKPGQAPVLVVYDMSDRPSGIPERFSGSNSGNTATLTISRVEAGDEADYYCQVWDGNSDHVVFGGGTKLTVLG
# notes: IgG4 backbone
# B20: 16H7 light chain variant D50F (antibody, IgG4, V domains shown)
# VH: not shown
# VL: SYVLTQPPSVSVAPGQTARITCGGNNIGSESVHWYQQKPGQAPVLVVYDFSDRPSGIPERFSGSNSGNTATLTISRVEAGDEADYYCQVWDGNSDHVVFGGGTKLTVLG
# notes: IgG4 backbone
# B21: 16H7 light chain variant D95A (antibody, IgG4, V domains shown)
# VH: not shown
# VL: SYVLTQPPSVSVAPGQTARITCGGNNIGSESVHWYQQKPGQAPVLVVYDDSDRPSGIPERFSGSNSGNTATLTISRVEAGDEADYYCQVWDGNSAHVVFGGGTKLTVLG
# notes: IgG4 backbone
# B22: 16H7 light chain variant D50Q (antibody, IgG4, V domains shown)
# VH: not shown
# VL: SYVLTQPPSVSVAPGQTARITCGGNNIGSESVHWYQQKPGQAPVLVVYDQSDRPSGIPERFSGSNSGNTATLTISRVEAGDEADYYCQVWDGNSDHVVFGGGTKLTVLG
# notes: IgG4 backbone
# B23: 16H7 light chain variant D50G (antibody, IgG4, V domains shown)
# VH: not shown
# VL: SYVLTQPPSVSVAPGQTARITCGGNNIGSESVHWYQQKPGQAPVLVVYDGSDRPSGIPERFSGSNSGNTATLTISRVEAGDEADYYCQVWDGNSDHVVFGGGTKLTVLG
# notes: IgG4 backbone
# B24: 16H7 light chain variant D49G (antibody, IgG4, V domains shown)
# VH: not shown
# VL: SYVLTQPPSVSVAPGQTARITCGGNNIGSESVHWYQQKPGQAPVLVVYGDSDRPSGIPERFSGSNSGNTATLTISRVEAGDEADYYCQVWDGNSDHVVFGGGTKLTVLG
# notes: IgG4 backbone
# Assays:
# human beta-Klotho (KLB) = target: T1, human beta-Klotho (KLB); experiment: BLI off-rate screening (Octet), crude supernatant;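 further: supernatants tested at 25 µg/mL, dissociation from biosensors recorded in D-PBS with 0.1% BSA over 1800 s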
# [1] = target: cell surface receptor composed of FGFR1c and co-receptor beta-Klotho (KLB) (human, UniProt P11362 22-822; Q86Z14 1-1044); experiment: cell-based or functional assay; on Mean E max, Luciferase reporter gene assay: reference of the scale not given here
# cell surface receptor composed of FGFR1c and co-receptor beta-Klotho (KLB), sequence (P11362 22-822, chain 1 of 2): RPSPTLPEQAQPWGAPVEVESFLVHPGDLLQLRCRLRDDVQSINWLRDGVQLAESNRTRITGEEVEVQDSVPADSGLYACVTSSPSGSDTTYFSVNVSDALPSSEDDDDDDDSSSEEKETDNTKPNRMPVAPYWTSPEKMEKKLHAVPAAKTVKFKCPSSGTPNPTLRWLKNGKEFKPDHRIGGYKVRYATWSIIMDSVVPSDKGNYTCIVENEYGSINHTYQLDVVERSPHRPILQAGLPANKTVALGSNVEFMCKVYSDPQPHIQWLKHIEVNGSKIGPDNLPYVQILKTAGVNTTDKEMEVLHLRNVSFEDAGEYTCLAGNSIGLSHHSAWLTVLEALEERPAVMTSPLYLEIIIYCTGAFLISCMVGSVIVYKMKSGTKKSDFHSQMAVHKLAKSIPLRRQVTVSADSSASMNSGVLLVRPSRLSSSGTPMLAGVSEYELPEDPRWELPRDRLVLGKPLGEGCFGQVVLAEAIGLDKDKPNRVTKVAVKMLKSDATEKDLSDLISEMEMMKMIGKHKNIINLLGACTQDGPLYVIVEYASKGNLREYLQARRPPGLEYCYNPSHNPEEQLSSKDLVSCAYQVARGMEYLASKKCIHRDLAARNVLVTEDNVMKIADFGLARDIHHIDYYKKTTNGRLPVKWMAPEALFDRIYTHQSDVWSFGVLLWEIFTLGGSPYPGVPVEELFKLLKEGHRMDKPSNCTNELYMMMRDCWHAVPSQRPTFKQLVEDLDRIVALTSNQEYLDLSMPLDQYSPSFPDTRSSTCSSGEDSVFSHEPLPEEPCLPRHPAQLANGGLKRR
# cell surface receptor composed of FGFR1c and co-receptor beta-Klotho (KLB), sequence (Q86Z14 whole entry, chain 2 of 2): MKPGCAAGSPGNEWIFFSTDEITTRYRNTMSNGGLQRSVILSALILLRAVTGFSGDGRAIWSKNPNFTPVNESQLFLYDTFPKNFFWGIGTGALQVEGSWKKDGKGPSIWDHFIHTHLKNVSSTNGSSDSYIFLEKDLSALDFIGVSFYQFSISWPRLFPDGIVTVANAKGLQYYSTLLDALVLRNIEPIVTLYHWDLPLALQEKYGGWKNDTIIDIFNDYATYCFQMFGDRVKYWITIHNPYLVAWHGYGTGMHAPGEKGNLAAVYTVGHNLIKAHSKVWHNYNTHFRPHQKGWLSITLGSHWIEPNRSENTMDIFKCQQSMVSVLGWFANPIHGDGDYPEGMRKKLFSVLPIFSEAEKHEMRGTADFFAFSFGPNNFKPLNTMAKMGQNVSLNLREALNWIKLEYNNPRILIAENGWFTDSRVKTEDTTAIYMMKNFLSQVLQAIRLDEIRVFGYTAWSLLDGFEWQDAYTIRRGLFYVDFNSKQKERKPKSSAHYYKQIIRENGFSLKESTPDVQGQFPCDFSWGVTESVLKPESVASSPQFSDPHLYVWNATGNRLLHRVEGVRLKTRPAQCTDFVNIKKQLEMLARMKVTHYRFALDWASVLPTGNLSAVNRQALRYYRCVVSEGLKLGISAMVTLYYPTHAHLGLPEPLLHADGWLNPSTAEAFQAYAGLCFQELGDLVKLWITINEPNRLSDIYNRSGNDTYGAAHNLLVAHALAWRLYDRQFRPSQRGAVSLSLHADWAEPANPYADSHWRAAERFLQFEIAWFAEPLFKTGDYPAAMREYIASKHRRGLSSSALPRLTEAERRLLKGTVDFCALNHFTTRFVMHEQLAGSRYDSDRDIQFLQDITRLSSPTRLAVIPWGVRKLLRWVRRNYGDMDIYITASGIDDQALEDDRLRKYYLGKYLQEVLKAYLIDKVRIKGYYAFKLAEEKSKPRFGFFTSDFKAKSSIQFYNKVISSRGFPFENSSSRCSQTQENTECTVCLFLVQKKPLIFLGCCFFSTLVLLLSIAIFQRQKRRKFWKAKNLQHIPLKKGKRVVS
Binder,koff (human beta-Klotho (KLB)),"Mean E max, Luciferase reporter gene assay [1]","Mean EC50, Luciferase reporter gene assay [1]"
B1,2.3e-06 s⁻¹,112%,0.135 nM
B2,0.00016 s⁻¹,4%,–
B3,0.00017 s⁻¹,108%,0.145 nM
B4,3.9e-05 s⁻¹,109%,0.153 nM
B5,8.1e-06 s⁻¹,33%,29.7 nM
B6,9.9e-05 s⁻¹,98%,0.098 nM
B7,4.1e-06 s⁻¹,100%,0.118 nM
B8,2.2e-05 s⁻¹,105%,0.106 nM
B9,1.4e-05 s⁻¹,8%,–
B10,7.6e-05 s⁻¹,105%,0.211 nM
B11,0.00016 s⁻¹,91%,0.123 nM
B12,0.00019 s⁻¹,94%,0.126 nM
B13,0.00032 s⁻¹,101%,0.126 nM
B14,3.9e-05 s⁻¹,104%,0.12 nM
B15,0.00013 s⁻¹,106%,0.095 nM
B16,0.00013 s⁻¹,110%,0.122 nM
B17,0.00016 s⁻¹,113%,0.157 nM
B18,8.2e-05 s⁻¹,109%,0.114 nM
B19,0.00013 s⁻¹,110%,0.125 nM
B20,0.0001 s⁻¹,113%,0.124 nM
B21,0.0002 s⁻¹,12%,–
B22,7.9e-05 s⁻¹,107%,0.171 nM
B23,1.7e-05 s⁻¹,107%,0.136 nM
B24,0.00029 s⁻¹,102%,0.102 nM
